Assay: yeast display, Sf9 membrane polyspecificity reagent, FACS + sequencing; frameworks hold sequencing errors
How it was run: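 Galactose induction of a Saccharomyces cerevisiae BJ5465 synthetic nanobody display library ran 36–48 hours. The cells were then stained for 1 hour at 4 °C with 10% biotinylated, detergent-solubilized Sf9 membrane reagent, pulled down on streptavidin microbeads and FACS-sorted into low and high (top ~1%) gates on expression and reagent-binding fluorescence. Labels for polyreactivity follow the gate of origin.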

Row | Sequence | polyreactivity (PSR sort gate)
1 | QVQLVESGGGLVQAGGSLRLSCAASGGIFRGYAMGCYRQAPGKERELVATITFSGTSTYYADSVKGRFTISRDNAKNTVYLQMNSLKPEDTAVYYCNADWWFKYDYWGQGTQVTVSS | low polyreactivity
2 | QVQLVESGGGLVQAGGSLRLTCAASGSTFLYYAMGWSREGPGNERELVATITHGGATNYADSVKGRFTISRDNAKNTVYLELNSLIPDDTAVYYCATDSYHYSYGYASLPEYDYWGHGTQVTVSS | low polyreactivity
3 | QDQLVESGGGLVQAGGSLRLSCAASGSIFRYYDMGWSRQAPGKERELVAAISDSTGTTYYADSVKGRFTISRDNAKNTVYLQMNSLKPEDTAVYYCNTAYNRYWRPFNSLYYWGQGTQVTVSS | high polyreactivity
4 | QVQLVESGGGLVQAGGSLRLSCAASGRTSVNYAMGWYREAPGKERELVASITYSDGRTYYADSVKGRFTISRDNAKNTVYLQMNSLKPEDTAVYYCAARGYSYRGWRMDYWGQGTQVTVSS | high polyreactivity
5 | QVQLVESVGGLVQAGGSLRLSCAASGITFGRNTMGWYRQAPGKERELVAAISWNGDSTYYADSVKGRFTISRDNAKNTVYLQMNSLKPEDTAVYYCNADDVFLYQTDGLGDYWGQGTQVTVSS | low polyreactivity
6 | QVQLVQSGGGLVQAGGSLRLICAASGSIFLYYAMGWYRQAPAKERELVAGIRRGGRKNYADSVKGRFTISRDNSKNTVYLQLNSLKPEDTGVYYCAKGGYWGQCTQVTVSS | high polyreactivity
7 | QVQLEESGGGLVQAGGSLRLSCAASGSTFYIYAMGSYRQAPGKERELVARMSGSGGSTYYADSVKGRFTISRDNAKNTVYLQMNSVKPEDTAVYYCAADDIYKYYQYYAFPYYRYDYWGQGTQVTVSS | low polyreactivity
8 | QVQLVESGGRLVQAGGSLRLRGAASGNTNIPNAMGWYRQAPGKERELLAAIRASGGSTYYADSVKGRFTISRDNAKNTVYFQLNSLKTEDTSVYYCNADIWYKTYDYWGQGTQVTVSS | low polyreactivity
9 | QVQLVESGGGLVQAGGSLRLSCAASGFTFESYAMGWYRQAPGKERELVAAISWNGGSSYYADSVKGRFTISRDNAKNTVYLQMNSLKPEDTAVYYCAARGRAPRFRRIGYDYWGQGTQVSVSS | high polyreactivity
10 | QVQLVESGGGLVQAGGSLRLSCAASGSIFGFNAMGWYRQAPGKERELVAAINNGGSTNYADSVKGRFTISRDNAKNTVYLQMNSLKPEDTAVYYCSARLNYIRRGYWGQGTQVTVSS | high polyreactivity
11 | QVQLVESGGGLVQAGGSLRLSCAASGRIFPYYAMGWYRQAPGKERELVATITSGGSTYYADSVKGRFTISRDNAKNTVYLQMNSLKPEDTAVYYCAARYPSIYFYRYDYWGQGNQVTVSS | high polyreactivity
12 | QVQLVESGGALLQAGGSLRLSCAASGGTFDTYAMGWYRQAPGKERELDAVIRASGGDTYYADSVKGRFTISRDNAKNTVYLQMNSLKPEDTAVYYCAAVLPFKYDYWGQGTQVTVSS | low polyreactivity
13 | QVQLVESGGGLVQAGGSLRLSCAASGRIFYFYAMGWYRQAPGKERELVAGITRSGDSTYADSVKGRFTISRDNAKNTVYLQMNSLKPEDTAVYYCAADFPWSTKSCHPDSGDSWGQGTQVTVSS | low polyreactivity
14 | QVQLVESGGGLVQAGGSLRISCAASGSNQDSYTMGWYRQAPGKERELVATISTSGGSTYYADSVKGRFTISRDNAKHTVYLQLNSLKPEDTAVYYCNADDPFGPHRYNSWGQGTQVTVSS | low polyreactivity
15 | QVQLEESGGGLVQAGGRLRLSCAASGITFGSYAMGWYRQAPGKERELVAAITRSDITNYADSVKGRFTISRDNAKNSVYLQMNRLNREDTAVYYCNKTPDRHRRYFGYGYWGHGTQVTVSS | low polyreactivity
16 | QVQLVESGGGLVQAGGSLRLSCAASAFTFGYYAMGWYIQAPGKERELVAAISSGGNTNYADSVKGRFTISRDNAKNTVYLQMNSLKPEDTAVYYCNRRSWRYYKTYSAFNYWGQGSQVTVSS | high polyreactivity
17 | QVQLVESGVGLVQAGGSLRLSCAASGSIFEVYAMGWYRQAPGKEREFVATLSGSGGSTYYADSVKGRFTISRDNAKNTVYLQMNSLKPEDTAVYYCAASIAWYSSFVITCYYWGQGTQVTVSS | low polyreactivity
18 | QVQLVESGGGLVQAGGSLRLSCAASGSTFSNNAMGWYRQAPGKERELVAAITRRGTSTYYADSVKGRFTISRDNAKNTVYLQMISLKPEDTAVYYCAAVYKLRHKRPSYGSWGQGTQVTVSS | high polyreactivity
19 | QVQLVESGGGLVQAGGSLRLSCAASGSTLYLNAMGWYRQAPGKERELDASISNGVNTNYADSVKGRFTISRDNAKNTVYLLMNSLKPEDTAVYYCAKEKRFQKTVHRKPAYDYWGQGTQVTVSS | low polyreactivity
20 | QVQLVDTGGGIVQAGGSLRLSCAASGRTFFWNAMGWYRLAPGKERELVAAITWYGGSTYYADSVKGRFTISRDNAKNTVYLQMNSLKPEDSAVYYCAAVVSDYVWRYEYWGQGTQVTVSS | low polyreactivity
21 | QVQLVESGGGLVQAGGSLRLSCAASGRTFGVYAMGWYRQAPWKERELVAGIRWRGGSTYYADSVKGRFTISRDNAKNTVYLQMNSLKPEDTAVYYCAADVYLVKYDYWGQGTQVTVSS | low polyreactivity
22 | QVQLVESGGGLVQAGGSLRLSCAASGSIFEEYALGSSRQAPGKERELVAAISRSGGSTYYADSVKGRFTISRDNAKNSVYLQMNSLKPEDTAVYYCAAEWVYGYRFGYWGQGTQVTVSS | low polyreactivity

Row | Sequence | polyreactivity (PSR sort gate)
23 | QVQLVESGGGLVQAGGSLRLSCAASGRTLPAYAMGWYRQAPGKERELVAAISWGGGSTYYADSVKGRFTISRDNAKNTVYLQMNSLKPEDTAVYYCAVAGYWFAVAEYDYWGQGTQVTVSS | low polyreactivity
24 | QVQLVESGGGLVQAGGSLRLSCAASGRTFRENAMGSSRPAPGKERELVAAIRRSGGRTYYADSVKGRFTISRDNAKNTVYLQMHSLKPEDTAVSDCIAVADGYAFRRPYVTYYYWGQGTQVTVSS | low polyreactivity
25 | QVQLVESGRGLDQAGGSLRLICYASGRTFLYNAMGWFRQSPGKERELVAAIRWSGGTTYYADSVKGRFTISRDNSKNNVYLQMNSLKPEDTAIYYCAARWGQYYGGVRYGYWGQGTQVTVSS | high polyreactivity
26 | QVQLVESGGGLVQAGGSLRLSCAASGRIFKRYAMGWSRQAPGKDRELVATITTSGDSTYYADSVKGRFTISRDNAKNTVYLQMNSLKPEDTAVYDCAARSYRGRRYDYWGQGTQVTVSS | high polyreactivity
27 | QVQLVESGGGLVQAGGSLRLSCAASGRIFDFNPMGWYRQAPGKEREVVAAISSGGRTKYADSVKGRFTISRDNAKNTVYLQMNSLKPEDTAVYYCAASGSQPDDYWGQGTQVTVSS | high polyreactivity
28 | QVQLVESGGGLVQAGGSLRLSCAASGSTFVRNAMGWYRQAPGKERELVAGISTGDNTYYADSVKWRFTISRDNAKNTVYLQMISLKPEDTAVYYCNATKEFSFGLDYWGQGTQVTVSS | low polyreactivity
29 | QVQLVESGGGLVQAGGSLRLSCAASGIIFYFYAMGWYRQAPGKERELVAAITSGGSTNYADSVKGRFTISRDNAKNTVYLQMNSLKPEDTAVYYCAADRDYYFFRYDYWGQGTQVTVSS | low polyreactivity
30 | QVHLEDSGGGLVQAGVILRLSSPASGSIFVYNAMGWYRPAPGKERELVAAISSSGGSTYYADSVKGRFTISRDNAKNTVYLQMNSLKPEDTAVYYCAAEAVRKVPSYYSYAYYYWGQGTQVTVSS | high polyreactivity
31 | QVQLVESGGGLVQAGGSLRLSCAASGRTFRYYTMGWYRQAPGKEREFVAAISSTGGTYYADSVKGRFTISRDNAKNTVYFQMNSLKPEDTAVYYCAAYRWGILSAYYYAWYGYWGQGTQVTVSS | low polyreactivity
32 | QVQIVESRGGLVQAGVSLRLSCAASGRIFAKNVMGWYRQAPGKDRELVAAISRSGGSTYYADSVKGRFTISRDNAKNTVYLQMNSLKPEDTAVYYCAATPAYGRRWSRYGYWGQGTQVNVSS | high polyreactivity
33 | QVQLVESGGGLVQAGGSLRLSCAASGRTFGRNAMGWYRQAPGKERELVAAISSSGTRTYYADSVKGRFTISRDNAKNTVYLQMNSLKPEDTAVYYCAVDTLRYKMDYWGQGTQVTVSS | low polyreactivity
34 | QVQLVESGGGLVQAGGSLRLSCAPSGFTFTYYAMGWYRQAPGQERELVAAITQSGGSTFYADSVQGRFTISRDNAKNTVYLQMNSLKPEDTAVYYCAADIDLYYDYDYWGQGTQVTVSS | low polyreactivity
35 | QVQLVDSGGGLVQAGGSLRLSCAASGGTFTAYTMGWYRQAPGKERELVAAITGDTSTNYADSVKGRFTISRDNAKNTVYLQMNSLKPVDTAVYYCAADVPRSYWRGYDYWGQGTQVTVSS | low polyreactivity
36 | QVQLVESGGGLVQAGGSLRLSCAASGFTFGSNAMGWYRQAPGKERELVATISRRGGRTYYADSVKGRFTISRDNAKNTVYLQMNSLKPEDTAVYYCAAYLRPGGNYYWGQGTQVTVSS | high polyreactivity
37 | QVQLVESGGGLVQAGGSLRLSCAASGSTFYYGMGWYRQAPGKERELVAAISSRGGTTYYADSVKGRFTISRDNAKNTVYLQMNSLKPEDTAVDYCAAPVPYYVPRRNEGDYWGQGTQVTVSS | low polyreactivity
38 | QVQLVESGGGLVQAGGSLRLSCAASGLTFIYYSMGWYRQAPGKERELVAAISVSGGSTYYADSVKGRFTISRDNAKNTVYLQMNSLKPEYTAVYYCAGDWFVHKPRYQYSFDYWGQGTQVTVSS | low polyreactivity
39 | QVQLVESGGGLVQAGGSLRLSCAASGFIFLRYVMGWYRQAPGKERELVAVITGTGVRTYADSVKGRFTISRDNAKNTVYLQMTSLKPEDTAVYYCAVVSSSREVEVLDFDYWGLGTQVTVSS | low polyreactivity
40 | QVQLVESGGGLVQAGGSLRLSCAASGFIFNINTMGWYRQAPGKERELVAAISGSGDSTYYADSVKGRFTISRDNAKNTVYLQMNSLKPEDTAVYYCNAGPWWYLHEYDYWGQGTQVTVSS | low polyreactivity
41 | QVQLVESGGGLVQAGGSLRLSCAASGSTLGAYAMGWYRQAPGKERELVAAITYSTGSTYYADSVKGRFTISRDNAKNTVYLQMNSLKPEDTAVYYCAAATYQSRYFQRFDCWGQGTQVTVSS | high polyreactivity
42 | QVQLVESGGGLVQAGGSLRLSCAASGRIFDVYAMGWYRQAPVKERELVAAITWRGGTTYYADSVKGRFTISRDNAKNTVYLQMHTLKPEDTAVYYCNADLVYYSKHQKYSYDYWGQGTQVTVSS | low polyreactivity
43 | QVQLVESGGGLVQAGGSLRLSCAASGSIFRKNAMGWYRQAPGKERELVAAITCTGRTTYADSVKGRFTISRDNAKNTVYLQMNSLKPEDTAVYYCAADVNYYQHRLYYWGQGTQVTVSS | low polyreactivity
